The source of these data is article PMC12251660, “The Structural Deciphering of the α3 Helix Within ZmHsfA2’S DNA-Binding Domain for the Recognition of Heat Shock Elements in Maize”.

Targets include ZmHsf17-R105A (Zea mays, UniProt A0A5J6CYG6 1-373, R105A); ZmHsf17-K142A (Zea mays, UniProt A0A5J6CYG6 1-373, K142A); ZmHsf17-T109A (Zea mays, UniProt A0A5J6CYG6 1-373, T109A).
Common to all, as to test: EMSA; EMSA/Gel-Shift buffer (Beyotime GS009; composition, salt and pH not stated), 10 uL, 25 C 30 min; 6% native PAGE in 0.5x TBE at 4 C
What all share (settings): protein: recombinant; tags: 6xHis (stated C-terminal; pET-30a); chain copies: 3; label: biotin; blunt
(In EMSA bound probe runs differently from free probe, usually more slowly.)

ZmHsf17-K142A, sequence (A0A5J6CYG6 entry or part of it K142A | K142A K142A): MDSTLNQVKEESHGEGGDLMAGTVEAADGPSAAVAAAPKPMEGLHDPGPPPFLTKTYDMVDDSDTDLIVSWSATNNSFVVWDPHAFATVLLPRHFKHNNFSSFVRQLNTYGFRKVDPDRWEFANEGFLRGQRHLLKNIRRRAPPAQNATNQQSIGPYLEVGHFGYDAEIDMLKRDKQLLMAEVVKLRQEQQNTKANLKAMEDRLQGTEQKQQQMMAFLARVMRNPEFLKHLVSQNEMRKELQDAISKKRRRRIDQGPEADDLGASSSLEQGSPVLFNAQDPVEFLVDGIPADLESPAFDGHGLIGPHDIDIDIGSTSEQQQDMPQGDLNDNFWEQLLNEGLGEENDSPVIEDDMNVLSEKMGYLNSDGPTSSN
ZmHsf17-R105A, sequence (A0A5J6CYG6 entry or part of it R105A | R105A R105A): as the sequence (A0A5J6CYG6 entry or part of it K142A | K142A K142A) above, with R105A, A142K counted along it
ZmHsf17-T109A, sequence (A0A5J6CYG6 entry or part of it T109A | T109A T109A): as the sequence (A0A5J6CYG6 entry or part of it K142A | K142A K142A) above, with T109A, A142K counted along it

B1: ZmPAH1-HSE2 (dsDNA)
DNA 1: CAGCGTCACATGACGGGAATTTTCACGTCTTTTCAGCCCT
DNA 2: AGGGCTGAAAAGACGTGAAAATTCCCGTCATGTGACGCTG
B1: the binding result in the data set with ZmHsf17-R105A is recorded as “no binding”; in the data set with ZmHsf17-K142A it was “binds”; with ZmHsf17-T109A it was “binds”.
